Test system: α4β7 integrin binding to MAdCAM-1
Assay: Competitive inhibition of binding of α4β7 on RPMI8866 cells to MAdCAM-1 by peptides, viruses, IMCs and controls
Format: cell-based, human
Details: for % Inhibition ± SD of α4β7 integrin binding to MAdCAM-1: average of 3–7 experiments in triplicate
Experimental: 96-well plates were coated with MAdCAM-1 as described above. RPMI8866 cells (2 X 10^6/ ml) were incubated with cyclic V2 or V3 MN, TH023, or acute subtype C (C-6980v0c22) peptides or with scrambled flanking region (SFL) or the mid region (SMR) TH023 V2 or with a completely scrambled (SCR) TH023 peptide (10 μg/ml) for 45 minutes at 37°C before being added in triplicate to the MAdCAM-1 coated plates for 1 hour at 37°C. In concurrent experiments, RMI8866 cells were incubated with purified primary HIV-1 (0.75 ng to 6 ng/well p24) subtype B (SF162, US-1, JRFL), subtype CRF01_AE viruses (92TH023), IMCs (0.75 ng to 1000 ng/well p24 in each case) containing acute or chronic envelopes (Acute CRF01_AE (703357) [GenBank:JN944658], C (C-6980v0c22) [GenBank:HM215344], A(851891); Chronic CRF01_AE (CM235.2) [AF259954.1], C (ET02220LucR) [U46016]) or with pSG3Δenv. pSG3Δenv contained a four-nucleotide insertion mutation (CTAG) in Env, leading to a translation stop codon after amino acid residue 142. The pSG3Δenv clone is routinely used for generating Env pseudotyped infectious virions.
Viruses were tested in triplicate in two independent experiments. In additional experiments, mannose, HIV-1 p24, and ovalbumin (0.2–10 μg/ml) were used in the competition assay as nonspecific protein controls (data in Table 2; 3–7 experiments performed in triplicate), whereas, an anti-RSV mAb, Synagis® was used as a nonspecific antibody control. Synagis® was incubated for 45 minutes with either MAdCAM-1 or with RPMI8866 cells and then placed in the assay system. The remainder of the assay was similar to that described above. Significance was determined by paired Student’s t test.

B1: Ovalbumin: nonspecific protein control (protein)
chain: MGSIGAASMEFCFDVFKELKVHHANENIFYCPIAIMSALAMVYLGAKDSTRTQINKVVRFDKLPGFGDSIEAQCGTSVNVHSSLRDILNQITKPNDVYSFSLASRLYAEERYPILPEYLQCVKELYRGGLEPINFQTAADQARELINSWVESQTNGIIRNVLQPSSVDSQTAMVLVNAIVFKGLWEKAFKDEDTQAMPFRVTEQESKPVQMMYQIGLFRVASMASEKMKILELPFASGTMSMLVLLPDEVSGLEQLESIINFEKLTEWTSSNVMEERKIKVYLPRMKMEEKYNLTSVLMAMGITDVFSSSANLSGISSAESLKISQAVHAAHAEINEAGREVVGSAEAGVDAASVSEEFRADHPFLFCIKHIATNAVLFFGRCVSP
Q: With B1 as the molecule, how does the “% Inhibition ± SD of α4β7 integrin binding to MAdCAM-1” value (from here on “% Inhibition ± SD”) (0.2 μg/ml) read?
A: 7.2 ± 12.5%

Q: What about the “% Inhibition ± SD” value (1.0 μg/ml) of the same molecule?
A: 2.0 ± 3.5%

Q: And the “% Inhibition ± SD” value (5 μg/ml)?
A: 13.6 ± 11.8%

Q: And the “% Inhibition of α4β7 integrin binding to MAdCAM-1” value (10 μg/ml, average of triplicate determinations from a single experiment)?
A: 18%

Q: What about the “Inhibition of α4β7 integrin binding to MAdCAM-1 by nonspecific controls (in words)” value (0.2–10 μg/ml) of the same molecule?
A: no significant inhibition

— publication PMC4666614, “Identification of New Regions in HIV-1 gp120 Variable 2 and 3 Loops that Bind to α4β7 Integrin Receptor” (PLoS ONE, 2015)
